Reference: PMC4245128, “Influence of Nonenzymatic Posttranslational Modifications on Constitution, Oligomerization and Receptor Binding of S100A12” (PLoS ONE, 2014)

Legend:
[1] = target: the molecule itself; assay: SEC; data not shown; Superdex 75 10/300 GL, 10 mM Tris-HCl, 150 mM NaCl, 500 µM CaCl2, 10 µM ZnCl2, pH 7.4
[2] = target: T1, recombinant human RAGE Fc chimera (human, UniProt Q15109 23-342); assay: SPR; Biacore X100, 25 °C, 30 µL/min; 7200 RU of RAGE Fc chimera amine-coupled to a CM5 chip; S100A12 samples injected (180 s association, 180 s dissociation); HBS-P (10 mM HEPES, 150 mM NaCl, 0.05% surfactant 20, pH 7.4) with 500 µM CaCl2 and 10 µM ZnCl2; reference cell subtracted; response given relative to the unincubated negative control; details: both partners purified
T1 construct: receptor for advanced glycation end-products (RAGE), human; No catalogue number is printed; also called receptor for advanced glycation end-products; recombinant RAGE; source: bought: R&D Systems, from a mouse myeloma cell line

[3] = target: the molecule itself; assay: SEC; Superdex 75 10/300 GL, 10 mM Tris-HCl, 150 mM NaCl, 500 µM CaCl2, 10 µM ZnCl2, pH 7.4, 0.6 mL/min; calibrated with bovine serum albumin, carbonic anhydrase, cytochrome C and aprotinin

T1 sequence (Q15109 23-342, change not shown): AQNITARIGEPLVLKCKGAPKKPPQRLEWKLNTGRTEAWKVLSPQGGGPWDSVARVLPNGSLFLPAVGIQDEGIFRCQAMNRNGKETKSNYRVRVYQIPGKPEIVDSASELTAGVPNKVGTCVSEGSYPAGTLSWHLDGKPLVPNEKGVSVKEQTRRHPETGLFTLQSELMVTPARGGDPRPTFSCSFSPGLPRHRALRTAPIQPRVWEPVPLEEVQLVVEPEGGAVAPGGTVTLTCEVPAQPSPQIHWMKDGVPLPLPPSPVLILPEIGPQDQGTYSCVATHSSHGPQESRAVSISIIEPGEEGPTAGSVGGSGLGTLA

B1: CEL-S100A12 prepared with 3 mM pyruvate (natural protein, UniProt P80511 1-92, looked up)
chain: MTKLEEHLEGIVNIFHQYSVRKGHFDTLSKGELKQLLTKELANTIKNIKDKAVIDEIFQGLDANQDEQVDFQEFISLVAIALKAAHYHTHKE
modifications: N-epsilon-carboxyethyllysine (CEL) on all lysine residues; carboxyethylated N-terminus; no arginine modifications (CEL rate equal to or higher than in all MGO-modified samples)
notes: S100A12 as in m1, CEL-modified by reductive amination; Heterogeneous mixture; the extent of modification is not quantified; also called CEL-modified S100A12 (3 mM pyruvate); source: E. coli One Shot BL21 (DE3), purified; reductive amination with 3 mM pyruvate and NaBH3CN at 25 °C for 16 h, excess reagent removed by ultrafiltration
- stoichiometry N [1]: 6
- percent binding (of the control) [2]: 80.9%

B2: CEL-S100A12 prepared with 30 mM pyruvate (natural protein, UniProt P80511 1-92, looked up)
chain: MTKLEEHLEGIVNIFHQYSVRKGHFDTLSKGELKQLLTKELANTIKNIKDKAVIDEIFQGLDANQDEQVDFQEFISLVAIALKAAHYHTHKE
modifications: N-epsilon-carboxyethyllysine (CEL) on all lysine residues; carboxyethylated N-terminus; no arginine modifications (highest modification rate)
notes: S100A12 as in m1, CEL-modified by reductive amination; Heterogeneous mixture; the extent of modification is not quantified; also called CEL-modified S100A12 (30 mM pyruvate); CEL-S100A12 at the highest modification rate; source: E. coli One Shot BL21 (DE3), purified; reductive amination with 30 mM pyruvate and NaBH3CN at 25 °C for 16 h, excess reagent removed by ultrafiltration
- stoichiometry N [1]: 6
- percent binding (of the control) [2]: 34%

B3: recombinant S100A12 (natural protein, UniProt P80511 1-92, looked up)
chain: MTKLEEHLEGIVNIFHQYSVRKGHFDTLSKGELKQLLTKELANTIKNIKDKAVIDEIFQGLDANQDEQVDFQEFISLVAIALKAAHYHTHKE
notes: N-terminal methionine only partially removed (M1S100A12 predominant); Mixture of chains with and without M1; The controls incubated without reagent are written as this molecule; also called M1S100A12; unincubated negative control; source: E. coli One Shot BL21 (DE3), purified (chitin column, on-column intein cleavage with DTT, dialysis, NAP-5)
- stoichiometry N [3]: 6

B4: S100A12 incubated with 4 µM MGO (natural protein, UniProt P80511 1-92, looked up)
chain: MTKLEEHLEGIVNIFHQYSVRKGHFDTLSKGELKQLLTKELANTIKNIKDKAVIDEIFQGLDANQDEQVDFQEFISLVAIALKAAHYHTHKE
modifications: hydroimidazolone (+54 Da) and MGO-hemiaminal/CEA (+72 Da) at R21 (partial, low modification degree)
notes: S100A12 as in m1, chemically modified with methylglyoxal; Heterogeneous mixture of modified and unmodified chains; also called MGO-modified S100A12 (4 µM MGO); source: E. coli One Shot BL21 (DE3), purified; incubated with 4 µM methylglyoxal at 37 °C for 1, 3 or 7 days, excess reagent removed by ultrafiltration
- stoichiometry N [1]: 6

B5: S100A12 incubated with 40 µM MGO (natural protein, UniProt P80511 1-92, looked up)
chain: MTKLEEHLEGIVNIFHQYSVRKGHFDTLSKGELKQLLTKELANTIKNIKDKAVIDEIFQGLDANQDEQVDFQEFISLVAIALKAAHYHTHKE
modifications: hydroimidazolone, MGO-hemiaminal/CEA, argpyrimidine and tetrahydropyrimidine at R21; CEL at K3, K30, K34, K39, K49, K83, K91; carboxyethylation of the N-terminus (partial)
notes: S100A12 as in m1, chemically modified with methylglyoxal; Heterogeneous mixture of modified and unmodified chains; also called MGO-modified S100A12 (40 µM MGO); source: E. coli One Shot BL21 (DE3), purified; incubated with 40 µM methylglyoxal at 37 °C for 1, 3 or 7 days, excess reagent removed by ultrafiltration
- stoichiometry N [1]: 6

B6: S100A12 incubated with 400 µM MGO (natural protein, UniProt P80511 1-92, looked up)
chain: MTKLEEHLEGIVNIFHQYSVRKGHFDTLSKGELKQLLTKELANTIKNIKDKAVIDEIFQGLDANQDEQVDFQEFISLVAIALKAAHYHTHKE
modifications: hydroimidazolone, MGO-hemiaminal/CEA, argpyrimidine and tetrahydropyrimidine at R21; CEL at K3, K30, K34, K39, K46, K49, K51, K83, K91; carboxyethylation of the N-terminus (partial)
notes: S100A12 as in m1, chemically modified with methylglyoxal; Heterogeneous mixture; by SEC a minor part was not present as hexamer; also called MGO-modified S100A12 (400 µM MGO); source: E. coli One Shot BL21 (DE3), purified; incubated with 400 µM methylglyoxal at 37 °C for 1, 3 or 7 days, excess reagent removed by ultrafiltration
- stoichiometry N [3]: 6

B7: S100A12 incubated with 4 mM MGO (natural protein, UniProt P80511 1-92, looked up)
chain: MTKLEEHLEGIVNIFHQYSVRKGHFDTLSKGELKQLLTKELANTIKNIKDKAVIDEIFQGLDANQDEQVDFQEFISLVAIALKAAHYHTHKE
modifications: hydroimidazolone, MGO-hemiaminal/CEA, argpyrimidine and tetrahydropyrimidine at R21; CEL at K3, K30, K34, K39, K46, K49, K51, K83, K91; carboxyethylation of the N-terminus; a +126 Da modification not assigned to a residue
notes: S100A12 as in m1, chemically modified with methylglyoxal; no signal of the native protein left in MALDI-TOF-MS; By SEC only a small part was hexamer; also called MGO-modified S100A12 (4 mM MGO); MGO-S100A12; source: E. coli One Shot BL21 (DE3), purified; incubated with 4 mM methylglyoxal at 37 °C for 1, 3 or 7 days, excess reagent removed by ultrafiltration
- stoichiometry N [3]: 6

B8: CEL-S100A12 prepared with 300 µM pyruvate (natural protein, UniProt P80511 1-92, looked up)
chain: MTKLEEHLEGIVNIFHQYSVRKGHFDTLSKGELKQLLTKELANTIKNIKDKAVIDEIFQGLDANQDEQVDFQEFISLVAIALKAAHYHTHKE
modifications: N-epsilon-carboxyethyllysine (CEL) on all lysine residues; carboxyethylated N-terminus; no arginine modifications (partial, modification rate rises with pyruvate)
notes: S100A12 as in m1, CEL-modified by reductive amination; Heterogeneous mixture; the extent of modification is not quantified; also called CEL-modified S100A12 (300 µM pyruvate); source: E. coli One Shot BL21 (DE3), purified; reductive amination with 300 µM pyruvate and NaBH3CN at 25 °C for 16 h, excess reagent removed by ultrafiltration
- stoichiometry N [1]: 6

B9: CEL-S100A12 prepared with 600 µM pyruvate (natural protein, UniProt P80511 1-92, looked up)
chain: MTKLEEHLEGIVNIFHQYSVRKGHFDTLSKGELKQLLTKELANTIKNIKDKAVIDEIFQGLDANQDEQVDFQEFISLVAIALKAAHYHTHKE
modifications: N-epsilon-carboxyethyllysine (CEL) on all lysine residues; carboxyethylated N-terminus; no arginine modifications (partial, modification rate rises with pyruvate)
notes: S100A12 as in m1, CEL-modified by reductive amination; Heterogeneous mixture; the extent of modification is not quantified; also called CEL-modified S100A12 (600 µM pyruvate); source: E. coli One Shot BL21 (DE3), purified; reductive amination with 600 µM pyruvate and NaBH3CN at 25 °C for 16 h, excess reagent removed by ultrafiltration
- stoichiometry N [1]: 6

B10: CEL-S100A12 prepared with 15 mM pyruvate (natural protein, UniProt P80511 1-92, looked up)
chain: MTKLEEHLEGIVNIFHQYSVRKGHFDTLSKGELKQLLTKELANTIKNIKDKAVIDEIFQGLDANQDEQVDFQEFISLVAIALKAAHYHTHKE
modifications: N-epsilon-carboxyethyllysine (CEL) on all lysine residues; carboxyethylated N-terminus; no arginine modifications (partial, modification rate rises with pyruvate)
notes: S100A12 as in m1, CEL-modified by reductive amination; Heterogeneous mixture; the extent of modification is not quantified; also called CEL-modified S100A12 (15 mM pyruvate); source: E. coli One Shot BL21 (DE3), purified; reductive amination with 15 mM pyruvate and NaBH3CN at 25 °C for 16 h, excess reagent removed by ultrafiltration
- stoichiometry N [1]: 6
